Results taken from publication PMC5980995, “An allostatic mechanism for M2 pyruvate kinase as an amino-acid sensor” (Biochemical Journal, 2018).

Biological target: M2 isoenzyme of pyruvate kinase (M2PYK), human, N-terminal His6 tag (human) (UniProt P14618)
Test: SEC; analytical gel chromatography, Superdex 200 PC 3.2/30, 0.1 ml/min; protein diluted from 20 mg/ml to 0.1 mg/ml and incubated up to 12 h (overnight) at room temperature in PBS-CM pH 7.4, without or with 10 mM serine, phenylalanine, alanine or tryptophan; apparent constant, tetramer to monomers

M2 isoenzyme of pyruvate kinase (M2PYK), human, N-terminal His6 tag, P14618 1-531 (enzyme; other documents disagree on this pair), sequence (P14618 whole entry): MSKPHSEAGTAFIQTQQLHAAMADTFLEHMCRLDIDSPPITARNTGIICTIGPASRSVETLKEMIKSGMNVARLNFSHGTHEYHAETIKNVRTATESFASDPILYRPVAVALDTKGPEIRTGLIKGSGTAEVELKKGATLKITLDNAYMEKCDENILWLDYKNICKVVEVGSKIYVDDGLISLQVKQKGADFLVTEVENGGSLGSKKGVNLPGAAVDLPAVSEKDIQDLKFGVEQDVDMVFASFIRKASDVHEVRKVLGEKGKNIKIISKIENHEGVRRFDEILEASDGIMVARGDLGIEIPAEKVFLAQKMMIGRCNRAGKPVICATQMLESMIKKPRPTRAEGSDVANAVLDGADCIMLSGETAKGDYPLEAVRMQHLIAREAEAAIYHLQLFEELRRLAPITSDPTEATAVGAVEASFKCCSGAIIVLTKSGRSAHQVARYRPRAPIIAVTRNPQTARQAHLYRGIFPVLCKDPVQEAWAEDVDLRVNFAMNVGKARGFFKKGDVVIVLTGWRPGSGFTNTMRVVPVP

Kd: 900 nM
Substance: M2 isoenzyme of pyruvate kinase (M2PYK), human, N-terminal His6 tag, P14618 1-531 (enzyme; other documents disagree on this pair)
